Reference: US20230322910A1 (published 2023)

T1: PfRipr5 (fragment of Ripr, positions 720-934 of SEQ ID NO: 17), made by wheat germ cell-free synthesis with … (UniProt O97302 720-934)
T1 chain: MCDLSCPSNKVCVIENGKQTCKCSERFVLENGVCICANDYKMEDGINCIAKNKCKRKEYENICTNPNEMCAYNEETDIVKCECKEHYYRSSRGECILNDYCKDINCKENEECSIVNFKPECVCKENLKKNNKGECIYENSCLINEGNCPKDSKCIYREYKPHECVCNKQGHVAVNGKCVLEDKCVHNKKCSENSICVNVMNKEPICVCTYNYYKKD


Columns and labels:
[1] = biological target: T1, PfRipr5 (fragment of Ripr, positions …); assay: SPR
4B7 = assay: SPR; U-value 95, negligible response

Binder | Kd [1] [nM] | Kd (4B7) [nM]
mouse monoclonal antibody 29B11 (antibody, V domains shown) VH: EVQLQQSGPELMKPGASVKISCKTSGYTFTEYTMHWVKQSHGKSLEWIGGIDPNNGITIYDQKFKGKATLTVDKSSSTAYMELRSLTSEDSAVYYCTRYYYGHYFDYWGQGTTLTVSS VL: DVLMTQTPLSLPVSLGDQASISCRSSQSIVHNNGHTYLEWYLQKPGQSPKLLIYKVSNRFSGVPDRFSGSGSGTDFTLKISRVEAEDLGIYYCFQDSHVPWTFGGGTKLEIKR | 2.19 | 
mouse monoclonal antibody 26H4 (antibody, V domains shown) VH: EVQLQQSGPELVKPGASVKISCKTSGYTFTEYTMHWVKQSHGKSLEWIGGIDPNNGVTIYNQNFKGKATLTVDKSSSTAYMELRSLTSEDSAVYHCARYYYGHYFDYWGQGTTLTVSS VL: DVLMTQTPLSLPVSLGDQASISCRSSQSIVHSNGNTYLEWYLQKPGQSPKLLIYKVSNRFSGVPDRFSGSGSGTDFTLKISRVEAEDLGVYYCFQNSHVTWTFGGGTKLEIKR | 0.69 | 
- (other) MCDLSCPSNKVCVIENGKQTCKCSERFVLENGVCICANDYKMEDGINCIAKNKCKRKEYENICTNPNEMCAYNEETDIVKCECKEHYYRSSRGECILNDYCKDINCKENEECSIVNFKPECVCKENLKKNNKGECIYENSCLINEGNCPKDSKCIYREYKPHECVCNKQGHVAVNGKCVLEDKCVHNKKCSENSICVNVMNKEPICVCTYNYYKKD |  | 0.0693
